According to US6448059:

What was measured:
[1] = molecular target: T1, cysteine-tRNA synthetase (CysRS) (Haemophilus influenzae) (UniProt P43816); conditions: kcat/Km of aminoacylation, 37 C; relative 1.4
T1 sequence: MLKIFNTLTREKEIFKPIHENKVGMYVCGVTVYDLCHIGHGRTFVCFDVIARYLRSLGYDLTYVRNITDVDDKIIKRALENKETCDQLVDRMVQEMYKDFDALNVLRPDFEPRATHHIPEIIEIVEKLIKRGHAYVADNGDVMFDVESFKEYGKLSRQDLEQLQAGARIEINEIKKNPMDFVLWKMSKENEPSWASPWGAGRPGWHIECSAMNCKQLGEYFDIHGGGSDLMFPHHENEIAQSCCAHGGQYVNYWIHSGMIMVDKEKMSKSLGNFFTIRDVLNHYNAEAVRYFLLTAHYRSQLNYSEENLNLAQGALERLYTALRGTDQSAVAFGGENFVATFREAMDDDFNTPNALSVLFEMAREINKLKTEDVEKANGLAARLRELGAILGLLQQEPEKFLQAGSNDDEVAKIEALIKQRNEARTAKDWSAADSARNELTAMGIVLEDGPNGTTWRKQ

[2] = molecular target: T2, cysteine-tRNA synthetase (CysRS) (Escherichia coli) (UniProt P21888); conditions: kcat/Km of aminoacylation, 37 C; relative 1.6
T2 sequence: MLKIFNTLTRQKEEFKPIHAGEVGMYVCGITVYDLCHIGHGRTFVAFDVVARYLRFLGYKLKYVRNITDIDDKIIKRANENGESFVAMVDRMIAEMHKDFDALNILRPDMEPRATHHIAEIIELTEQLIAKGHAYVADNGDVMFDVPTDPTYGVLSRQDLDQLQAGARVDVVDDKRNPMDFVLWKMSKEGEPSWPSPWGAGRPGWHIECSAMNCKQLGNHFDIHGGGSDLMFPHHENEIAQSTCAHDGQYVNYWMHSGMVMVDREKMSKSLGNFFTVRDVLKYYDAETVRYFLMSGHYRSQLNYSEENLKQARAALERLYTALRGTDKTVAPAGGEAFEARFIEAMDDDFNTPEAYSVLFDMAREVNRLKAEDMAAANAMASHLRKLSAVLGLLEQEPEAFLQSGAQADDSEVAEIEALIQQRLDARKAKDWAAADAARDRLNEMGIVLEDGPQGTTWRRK

Substance: B. subtilis tRNACys
- activity [1]: 250000 M⁻¹ s⁻¹
- activity [2]: 340000 M⁻¹ s⁻¹
